Key:
[1] = target: T1, Recombinant Human TNF-α/TNFSF1A (human, UniProt P01375 77-233); experiment: SPR (BIACORE), antibody captured, TNFα in solution
T1 construct: also called hTNF-α; huTNFα
Experimental: The BIACORE assay (Biacore, Inc, Piscataway, N.J.) determines the affinity of antibodies with kinetic measurements of on-rate and off-rate constants. Binding of antibodies to a target antigen (for example, a purified recombinant target antigen) is determined by surface plasmon resonance-based measurements with a Biacore® 1000 or 3000 instrument (Biacore® AB, Uppsala, Sweden) using running HBS-EP (10 mM HEPES [pH 7.4], 150 mM NaCl, 3 mM EDTA, and 0.005% surfactant P20) at 25° C. All chemicals are obtained from Biacore® AB (Uppsala, Sweden) or otherwise from a different source as described. For example, approximately 5000 RU of goat anti-mouse IgG, (Fcγ), fragment specific polyclonal antibody (Pierce Biotechnology Inc, Rockford, Ill.) diluted in 10 mM sodium acetate (pH 4.5) is directly immobilized across a CM5 research grade biosensor chip using a standard amine coupling kit according to manufacturer's instructions and procedures at 25 μg/ml. Unreacted moieties on the biosensor surface are blocked with ethanolamine. Modified carboxymethyl dextran surface in flowcell 2 and 4 is used as a reaction surface. Unmodified carboxymethyl dextran without goat anti-mouse IgG in flow cell 1 and 3 is used as the reference surface. For kinetic analysis, rate equations derived from the 1:1 Langmuir binding model are fitted simultaneously to association and dissociation phases of all eight injections (using global fit analysis) with the use of Biaevaluation 4.0.1 software. Purified antibodies are diluted in HEPES-buffered saline for capture across goat anti-mouse IgG specific reaction surfaces. Antibodies to be captured as a ligand (25 μg/ml) are injected over reaction matrices at a flow rate of 5 μl/minute. The association and dissociation rate constants, kₒₙ (M⁻¹ s⁻¹) and koff (s⁻¹), are determined under a continuous flow rate of 25 μl/minute. Rate constants are derived by making kinetic binding measurements at different antigen concentrations ranging from 10-200 nM. The equilibrium dissociation constant (M) of the reaction between antibodies and the target antigen is then calculated from the kinetic rate constants by the following formula: KD=koff/kₒₙ. Binding is recorded as a function of time and kinetic rate constants are calculated. In this assay, on-rates as fast as 10⁶ M⁻¹ s⁻¹ and off-rates as slow as 10⁻⁶ s⁻¹ can be measured.

[2] = target: T1, Recombinant Human TNF-α/TNFSF1A; experiment: cell-based or functional assay

T1 sequence (P01375 77-233 limits assumed): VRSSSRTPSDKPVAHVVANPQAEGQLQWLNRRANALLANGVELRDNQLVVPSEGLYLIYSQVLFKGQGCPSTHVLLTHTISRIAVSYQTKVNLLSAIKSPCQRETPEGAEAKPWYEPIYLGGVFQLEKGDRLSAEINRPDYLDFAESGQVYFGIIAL

| Binder | Kd [1] | koff [1] | kon [1] | TNFα Neutralization Assay IC50 nM (L929 cells) [2] |
| --- | --- | --- | --- | --- |
| AB380 (antibody, V domains shown, Full-length humanized antibody made in HEK 293-6E; also called hMAK199VH.2a/hMAK199VL.2b) VH: EIQLVQSGAEVKKPGASVKVSCKASGYTFTNYGMNWVRQAPGQGLEWMGWINTYTGEPTYADDFKGRFTFTLDTSTSTAYMELSSLRSEDTAVYFCARKFLTTVVVTDYAMDYWGQGTTVTVSS VL: DIVMTQSPAFLSVTPGEKVTITCRASQDISNYLNWYQQKPDQAPKLLIYYTSRLQSGVPSRFSGSGSGTDYTFTISSLEAEDAATYYCQQGNTLPPTFGQGTKLEIK | 1.8 nM | 0.0015 s⁻¹ | 820000 M⁻¹ s⁻¹ | > 20 nM |
| AB375 (antibody, V domains shown, Full-length humanized antibody made in HEK 293-6E; also called hMAK199VH.2a/hMAK199VL.1) VH: EIQLVQSGAEVKKPGASVKVSCKASGYTFTNYGMNWVRQAPGQGLEWMGWINTYTGEPTYADDFKGRFTFTLDTSTSTAYMELSSLRSEDTAVYFCARKFLTTVVVTDYAMDYWGQGTTVTVSS VL: DIQMTQSPSSLSASVGDRVTITCRASQDISNYLNWYQQKPGKAPKLLIYYTSRLQSGVPSRFSGSGSGTDFTLTISSLQPEDFATYYCQQGNTLPPTFGQGTKLEIK | 1.3 nM | 0.0011 s⁻¹ | 900000 M⁻¹ s⁻¹ | 11.4 nM |
| AB381 (antibody, V domains shown, Full-length humanized antibody made in HEK 293-6E; also called hMAK199VH.2b/hMAK199VL.1) VH: EIQLVQSGAEVKKPGASVKVSCKASGYTFTNYGMNWVRQAPGQGLEWMGWINTYTGEPTYADDFKGRVTFTTDTSTSTAYMELSSLRSEDTAVYYCARKFLTTVVVTDYAMDYWGQGTTVTVSS VL: DIQMTQSPSSLSASVGDRVTITCRASQDISNYLNWYQQKPGKAPKLLIYYTSRLQSGVPSRFSGSGSGTDFTLTISSLQPEDFATYYCQQGNTLPPTFGQGTKLEIK | 1.9 nM | 0.0017 s⁻¹ | 860000 M⁻¹ s⁻¹ | 5.9 nM |
| AB383 (antibody, V domains shown, Full-length humanized antibody made in HEK 293-6E; also called hMAK199VH.2b/hMAK199VL.1b) VH: EIQLVQSGAEVKKPGASVKVSCKASGYTFTNYGMNWVRQAPGQGLEWMGWINTYTGEPTYADDFKGRVTFTTDTSTSTAYMELSSLRSEDTAVYYCARKFLTTVVVTDYAMDYWGQGTTVTVSS VL: DIQMTQSPSSLSASVGDRVTITCRASQDISNYLNWYQQKPGKAPKLLIYYTSRLQSGVPSRFSGSGSGTDYTLTISSLQPEDFATYYCQQGNTLPPTFGQGTKLEIK | 2.1 nM | 0.0018 s⁻¹ | 830000 M⁻¹ s⁻¹ | > 20 nM |
| AB370 (antibody, V domains shown, Full-length humanized antibody made in HEK 293-6E; also called hMAK199VH.2/hMAK199VL.1a) VH: EVQLVQSGAEVKKPGASVKVSCKASGYTFTNYGMNWVRQAPGQGLEWMGWINTYTGEPTYADDFKGRVTMTTDTSTSTAYMELSSLRSEDTAVYYCARKFLTTVVVTDYAMDYWGQGTTVTVSS VL: DIQMTQSPSSLSASVGDRVTITCRASQDISNYLNWYQQKPGKTVKLLIYYTSRLQSGVPSRFSGSGSGTDYTLTISSLQPEDFATYFCQQGNTLPPTFGQGTKLEIK | 1.1 nM | 0.0012 s⁻¹ | 1e+06 M⁻¹ s⁻¹ | 3.78 nM |
| AB385 (antibody, V domains shown, Full-length humanized antibody made in HEK 293-6E; also called hMAK199VH.2b/hMAK199VL.2a) VH: EIQLVQSGAEVKKPGASVKVSCKASGYTFTNYGMNWVRQAPGQGLEWMGWINTYTGEPTYADDFKGRVTFTTDTSTSTAYMELSSLRSEDTAVYYCARKFLTTVVVTDYAMDYWGQGTTVTVSS VL: DIVMTQSPAFLSVTPGEKVTITCRASQDISNYLNWYQQKPDQTVKLLIYYTSRLQSGVPSRFSGSGSGTDYTFTISSLEAEDAATYFCQQGNTLPPTFGQGTKLEIK | 2.2 nM | 0.0019 s⁻¹ | 880000 M⁻¹ s⁻¹ | 9.76 nM |
| AB371 (antibody, V domains shown, Full-length humanized antibody made in HEK 293-6E; also called hMAK199VH.2/hMAK199VL.1b) VH: EVQLVQSGAEVKKPGASVKVSCKASGYTFTNYGMNWVRQAPGQGLEWMGWINTYTGEPTYADDFKGRVTMTTDTSTSTAYMELSSLRSEDTAVYYCARKFLTTVVVTDYAMDYWGQGTTVTVSS VL: DIQMTQSPSSLSASVGDRVTITCRASQDISNYLNWYQQKPGKAPKLLIYYTSRLQSGVPSRFSGSGSGTDYTLTISSLQPEDFATYYCQQGNTLPPTFGQGTKLEIK | 1.2 nM | 0.0017 s⁻¹ | 1.5e+06 M⁻¹ s⁻¹ | > 20 nM |
| AB376 (antibody, V domains shown, Full-length humanized antibody made in HEK 293-6E; also called hMAK199VH.2a/hMAK199VL.1a) VH: EIQLVQSGAEVKKPGASVKVSCKASGYTFTNYGMNWVRQAPGQGLEWMGWINTYTGEPTYADDFKGRFTFTLDTSTSTAYMELSSLRSEDTAVYFCARKFLTTVVVTDYAMDYWGQGTTVTVSS VL: DIQMTQSPSSLSASVGDRVTITCRASQDISNYLNWYQQKPGKTVKLLIYYTSRLQSGVPSRFSGSGSGTDYTLTISSLQPEDFATYFCQQGNTLPPTFGQGTKLEIK | 1.3 nM | 0.0014 s⁻¹ | 1.1e+06 M⁻¹ s⁻¹ | 3.65 nM |
| AB386 (antibody, V domains shown, Full-length humanized antibody made in HEK 293-6E; also called hMAK199VH.2b/hMAK199VL.2b) VH: EIQLVQSGAEVKKPGASVKVSCKASGYTFTNYGMNWVRQAPGQGLEWMGWINTYTGEPTYADDFKGRVTFTTDTSTSTAYMELSSLRSEDTAVYYCARKFLTTVVVTDYAMDYWGQGTTVTVSS VL: DIVMTQSPAFLSVTPGEKVTITCRASQDISNYLNWYQQKPDQAPKLLIYYTSRLQSGVPSRFSGSGSGTDYTFTISSLEAEDAATYYCQQGNTLPPTFGQGTKLEIK | 2.3 nM | 0.0015 s⁻¹ | 660000 M⁻¹ s⁻¹ | > 20 nM |
| AB374 (antibody, V domains shown, Full-length humanized antibody made in HEK 293-6E; also called hMAK199VH.2/hMAK199VL.2b) VH: EVQLVQSGAEVKKPGASVKVSCKASGYTFTNYGMNWVRQAPGQGLEWMGWINTYTGEPTYADDFKGRVTMTTDTSTSTAYMELSSLRSEDTAVYYCARKFLTTVVVTDYAMDYWGQGTTVTVSS VL: DIVMTQSPAFLSVTPGEKVTITCRASQDISNYLNWYQQKPDQAPKLLIYYTSRLQSGVPSRFSGSGSGTDYTFTISSLEAEDAATYYCQQGNTLPPTFGQGTKLEIK | 1.3 nM | 0.0015 s⁻¹ | 1.2e+06 M⁻¹ s⁻¹ | > 20 nM |
| AB379 (antibody, V domains shown, Full-length humanized antibody made in HEK 293-6E; also called hMAK199VH.2a/hMAK199VL.2a) VH: EIQLVQSGAEVKKPGASVKVSCKASGYTFTNYGMNWVRQAPGQGLEWMGWINTYTGEPTYADDFKGRFTFTLDTSTSTAYMELSSLRSEDTAVYFCARKFLTTVVVTDYAMDYWGQGTTVTVSS VL: DIVMTQSPAFLSVTPGEKVTITCRASQDISNYLNWYQQKPDQTVKLLIYYTSRLQSGVPSRFSGSGSGTDYTFTISSLEAEDAATYFCQQGNTLPPTFGQGTKLEIK | 1.8 nM | 0.0016 s⁻¹ | 890000 M⁻¹ s⁻¹ | > 20 nM |
| AB369 (antibody, V domains shown, Full-length humanized antibody made in HEK 293-6E; also called hMAK199VH.2/hMAK199VL.1) VH: EVQLVQSGAEVKKPGASVKVSCKASGYTFTNYGMNWVRQAPGQGLEWMGWINTYTGEPTYADDFKGRVTMTTDTSTSTAYMELSSLRSEDTAVYYCARKFLTTVVVTDYAMDYWGQGTTVTVSS VL: DIQMTQSPSSLSASVGDRVTITCRASQDISNYLNWYQQKPGKAPKLLIYYTSRLQSGVPSRFSGSGSGTDFTLTISSLQPEDFATYYCQQGNTLPPTFGQGTKLEIK | 1.1 nM | 0.001 s⁻¹ | 940000 M⁻¹ s⁻¹ | > 20 nM |
| AB373 (antibody, V domains shown, Full-length humanized antibody made in HEK 293-6E; also called hMAK199VH.2/hMAK199VL.2a) VH: EVQLVQSGAEVKKPGASVKVSCKASGYTFTNYGMNWVRQAPGQGLEWMGWINTYTGEPTYADDFKGRVTMTTDTSTSTAYMELSSLRSEDTAVYYCARKFLTTVVVTDYAMDYWGQGTTVTVSS VL: DIVMTQSPAFLSVTPGEKVTITCRASQDISNYLNWYQQKPDQTVKLLIYYTSRLQSGVPSRFSGSGSGTDYTFTISSLEAEDAATYFCQQGNTLPPTFGQGTKLEIK | 1.2 nM | 0.0012 s⁻¹ | 940000 M⁻¹ s⁻¹ | > 20 nM |
| AB382 (antibody, V domains shown, Full-length humanized antibody made in HEK 293-6E; also called hMAK199VH.2b/hMAK199VL.1a) VH: EIQLVQSGAEVKKPGASVKVSCKASGYTFTNYGMNWVRQAPGQGLEWMGWINTYTGEPTYADDFKGRVTFTTDTSTSTAYMELSSLRSEDTAVYYCARKFLTTVVVTDYAMDYWGQGTTVTVSS VL: DIQMTQSPSSLSASVGDRVTITCRASQDISNYLNWYQQKPGKTVKLLIYYTSRLQSGVPSRFSGSGSGTDYTLTISSLQPEDFATYFCQQGNTLPPTFGQGTKLEIK | 2 nM | 0.0015 s⁻¹ | 740000 M⁻¹ s⁻¹ | 1.19 nM |
